Laboratory results taken from the supplement of paper PMC12764529.
± gives the half width of the 95% confidence interval.

How the values were obtained:
[1] = folding stability dG unfold from trypsin proteolysis; higher = more stable
In short: (§1)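 Only designs with AlphaFold2 dimer inter-PAE above 15 were retained; each was a mini-protein under 80 residues with no cysteine, in a PA-tagged cDNA display construct. After digestion with trypsin and chymotrypsin and sequencing, K50 was inferred by Bayesian fitting of counts, and unfolding free energy was derived per protease or combined against a sequence-predicted unfolded-state K50 and a shared folded-state K50.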

[2] = folding stability dG unfold from chymotrypsin proteolysis; higher = more stable
In short: as §1

[3] = folding stability dG unfold (combined trypsin and chymotrypsin); higher = more stable
In short: as §1

Sequence	folding stability dG unfold [1]	folding stability dG unfold [2]	folding stability dG unfold [3]
SAGGSAGGMVTSSVSALPDGSYRLTITYPDGTVLTFEFDSEEEVAALLAELAEALPADAAVPLASAGGSAGG [r6_464_JUSTAS]	1.64 ± 0.059 kcal/mol	1.65 ± 0.046 kcal/mol	1.71 ± 0.065 kcal/mol
SAGGSAGGMVVERKDMDPEEAVEDTKKRIKEETGWEVTEITVTEFPEEPRLVVTIKVKKPPEKSSAGGSAGG [r6_462_JUSTAS]	-0.287 ± 0.11 kcal/mol	0.71 ± 0.016 kcal/mol	0.408 ± 0.098 kcal/mol
SAGGSAGGMVVRVTLPDGTVVTFEFESEEEFRKEFAASLGLAPDEIPEERIVSVERLSPEEYRSSAGGSAGG [r6_588_JUSTAS]	1.26 ± 0.039 kcal/mol	1.64 ± 0.11 kcal/mol	1.59 ± 0.086 kcal/mol
SAGGSAGGMYKVTITVTDPATGKTVATETLTLESEEEAKEYVEAVKKELPSSLTVSATITKVPESAGGSAGG [r6_690_JUSTAS]	4.77 ± 0.46 kcal/mol	4.41 ± 0.072 kcal/mol	4.58 ± 0.12 kcal/mol
SAGGSAGGMYTKTYNVPPDWKVTATATAPGGATVTDSSAPNGNFTLTFPASLADATTFTVTVTPSAGGSAGG [r6_237_JUSTAS]	-0.869 ± 0.47 kcal/mol	0.641 ± 0.13 kcal/mol	0.285 ± 0.14 kcal/mol
SAGGSAGGNEIAEKLKKKYPNIKIKSVKINPKEGKIEIDLGFPKDAKPETIKKIEKEIEELAKKSAGGSAGG [r6_97_TrMRF]	0.578 ± 0.056 kcal/mol	0.442 ± 0.14 kcal/mol	0.646 ± 0.34 kcal/mol
SAGGSAGGNGPPDIKIKIEILEVHPGHRDPDGKYYFRVRVEIEYPNKPVKVDFPMPADDAKDLISAGGSAGG [r6_724_TrROS]	2.93 ± 0.11 kcal/mol	4.2 ± 0.092 kcal/mol	3.66 ± 0.15 kcal/mol
SAGGSAGGNLTLPPDNIKRIWHVGDGHWLIKMDDNVLMINPGNGKIQTVKKEDADKLPPGDPFFSAGGSAGG [r6_890_TrROS]	-0.473 ± 0.2 kcal/mol	0.0704 ± 0.19 kcal/mol	0.0115 ± 0.15 kcal/mol
SAGGSAGGNPDLVITFPDGVKITVHPDGTITITRFIPGRDVPVGTRTITVPAPDGIPLEELLKYSAGGSAGG [r6_572_TrMRF]	0.887 ± 0.062 kcal/mol	1.2 ± 0.059 kcal/mol	1.13 ± 0.13 kcal/mol
SAGGSAGGNPVRYRVTITVTSPTGGSPVIELELDDPAELAEVEALAAELAAAPVTTTVTVEPIGSAGGSAGG [r6_743_JUSTAS]	1.02 ± 0.049 kcal/mol	0.584 ± 0.14 kcal/mol	0.807 ± 0.072 kcal/mol
SAGGSAGGNVLIPKSKLEEFLKNIPFEVLVLNPENPRLEIARVEADDIFVDDDYALILLTVSNDSAGGSAGG [r6_753_TrMRF]	1 ± 0.032 kcal/mol	0.221 ± 0.18 kcal/mol	0.742 ± 0.12 kcal/mol
SAGGSAGGPEIKVLEVRKLPDGSFEFIVEVPPGDAEKIKSGTVVKIKFGDKEYDVTVEVIPTEGSAGGSAGG [r6_372_TrMRF]	1.73 ± 0.038 kcal/mol	2.52 ± 0.051 kcal/mol	2.24 ± 0.045 kcal/mol
SAGGSAGGPFVLKFPDPKNMNKLQEAASDHGMNMNRNPEKGTHVINFGGNMLDELQELPGIEIVSAGGSAGG [r6_726_TrROS]	-1.05 ± 0.15 kcal/mol	-1.1 ± 0.61 kcal/mol	-0.769 ± 0.24 kcal/mol
SAGGSAGGPIDLDDIKIEEIEHERNPNGMMYHEVTIRFPGGKIPVWFHPNMSLDNAVDMLRAFISAGGSAGG [r6_233_TrROS]	1.4 ± 0.092 kcal/mol	0.814 ± 0.11 kcal/mol	1.19 ± 0.11 kcal/mol
SAGGSAGGPKKIKITNIEYPNGYWRVKISLPNGKEVEYPMDSPDDALDWAEDDGIKEVEIEKYNSAGGSAGG [r6_601_TrROS]	-0.429 ± 0.49 kcal/mol	0.358 ± 0.28 kcal/mol	0.159 ± 0.18 kcal/mol
SAGGSAGGPLVLRIETPEDKVLVLVLPEEAEKLPPKELAEIAAKEFAALPGVKEVKVEIAPLPLSAGGSAGG [r6_710_TrMRF]	0.885 ± 0.058 kcal/mol	1.11 ± 0.15 kcal/mol	1.03 ± 0.12 kcal/mol
SAGGSAGGPLYRVLILLKKPNGEPLLLPLVAEDPEKALELAERLRKEYEEKGYELVAVEIYEFPSAGGSAGG [r6_869_TrMRF]	4.37 ± 0.22 kcal/mol	5.26 ± 0.13 kcal/mol	5.22 ± 0.22 kcal/mol
SAGGSAGGPMSAEELARFLANEFHKKHGMPPGHRVKIPVKWRDPEDGNEQEVTIEIPIRMPKGDSAGGSAGG [r6_799_TrROS]	0.32 ± 0.17 kcal/mol	1.4 ± 0.083 kcal/mol	1.2 ± 0.16 kcal/mol
SAGGSAGGPNIRIIIKPDPENGTLKIWFVHPEPGRIQKYEFNMNGKWKIKEPVGPMKPGDPGLLSAGGSAGG [r6_149_TrROS]	0.668 ± 0.16 kcal/mol	1.52 ± 0.33 kcal/mol	1.33 ± 0.34 kcal/mol
SAGGSAGGPPDIVTLPIWIGGLKVEIMVYPDGSVTIMFRFPDWYYMITFPLKNGKIEIEWVPLKSAGGSAGG [r6_555_TrROS]	3.16 ± 0.11 kcal/mol	3.54 ± 0.1 kcal/mol	3.35 ± 0.22 kcal/mol
SAGGSAGGPSPNQPERQQVQVEAKIRFPDPNGKEWTIEITAYGSVGDARDAARSLAREIKNGKISAGGSAGG [r6_944_TrROS]	-0.494 ± 0.17 kcal/mol	-0.782 ± 0.49 kcal/mol	-0.484 ± 0.16 kcal/mol

Sequence	folding stability dG unfold [1]	folding stability dG unfold [2]	folding stability dG unfold [3]
SAGGSAGGPSYTIQFPYPPGMPPWRLQKLLEEAGYPPPEIEYNPKNGSHWITFSPEVRDAFKELSAGGSAGG [r6_307_TrROS]	0.476 ± 0.1 kcal/mol	0.845 ± 0.17 kcal/mol	0.676 ± 0.21 kcal/mol
SAGGSAGGPVITFPWNDIPELLERARENGDPEYYIRVSPDDPGNFTIMPPEEAEENGMPVIPLDSAGGSAGG [r6_710_TrROS]	-0.976 ± 0.45 kcal/mol	-0.656 ± 0.46 kcal/mol	-0.668 ± 0.33 kcal/mol
SAGGSAGGPVSVDPSTGTVTITVPPGTATPVVEAIAAALGLPVETATTPLPDGTTTVTVTIPAASAGGSAGG [r6_419_JUSTAS]	0.733 ± 0.1 kcal/mol	0.816 ± 0.1 kcal/mol	0.844 ± 0.22 kcal/mol
SAGGSAGGRFTVQFRVPGTLEEAREKAEEIAENLPPNFKDVEVDIEPHPKNGWIRVEVQIKMKKSAGGSAGG [r6_164_TrROS]	0.991 ± 0.16 kcal/mol	1.07 ± 0.16 kcal/mol	1.01 ± 0.31 kcal/mol
SAGGSAGGRVVLSAEEIEKLKPGDEIELLVRDKETGEWRRVKARVVRIERVGDRVYVEIEIEPESAGGSAGG [r6_753_TrROS_Hall]	4.53 ± 0.25 kcal/mol	4.19 ± 0.057 kcal/mol	4.29 ± 0.12 kcal/mol
SAGGSAGGRWYIMIEIRFPGNGRQFSFMIPIPPGDEVDIKLDELAEWFGFPNVKVDIQVMPLEKSAGGSAGG [r6_722_TrROS]	3.41 ± 0.3 kcal/mol	4.75 ± 0.12 kcal/mol	4.45 ± 0.18 kcal/mol
SAGGSAGGSAAEVEVETLELEIDGVKITVTRVRNADGELLYFARIEVRPAPPPPPVSLEDLSAGGSAGGSAG [r3_68_TrROS_Hall]	3.02 ± 0.093 kcal/mol	3.25 ± 0.074 kcal/mol	3.23 ± 0.12 kcal/mol
SAGGSAGGSAAKVISVNPETGEVVVEYPDGSVGYFKVKGGVVEEVRSSPVLPVPEDDPLFTSAGGSAGGSAG [r3_406_TrMRF]	1.05 ± 0.032 kcal/mol	1.2 ± 0.088 kcal/mol	1.15 ± 0.077 kcal/mol
SAGGSAGGSAAMTVSEVSSSPDPSSDYLSFEVRTTETVKVPGTKAPVTTTVTTTPTKVSKLLSAGGSAGGSA [r18_41_JUSTAS]	-0.237 ± 0.12 kcal/mol	-0.177 ± 0.25 kcal/mol	-0.111 ± 0.12 kcal/mol
SAGGSAGGSAANVTREPRFDPSTNLVRTLVRFPDGSVREEILEITKNPDGTLTYKRFERPPSAGGSAGGSAG [r3_474_JUSTAS]	0.383 ± 0.12 kcal/mol	1.59 ± 0.18 kcal/mol	1.19 ± 0.14 kcal/mol
SAGGSAGGSAATKQITYTPPGSNRTYSFTATLTEEDPVTGRKLLELTLPDGTPITLPEGELGSAGGSAGGSA [r18_334_JUSTAS]	0.191 ± 0.061 kcal/mol	0.0349 ± 0.08 kcal/mol	0.163 ± 0.067 kcal/mol
SAGGSAGGSAAVILPEGTLYFTLPDGSRAAATVDPATGTVHIRLYSPDGVPLAEADIPIDPSAGGSAGGSAG [r3_447_TrMRF]	0.947 ± 0.024 kcal/mol	2.26 ± 0.037 kcal/mol	1.83 ± 0.07 kcal/mol
SAGGSAGGSAAYTTPDGTNIILKDPNRPVVSLYKKDPSTNTWTPVSTLPISEVPEEILELLSAGGSAGGSAG [r3_241_JUSTAS]	0.426 ± 0.022 kcal/mol	0.583 ± 0.079 kcal/mol	0.599 ± 0.062 kcal/mol
SAGGSAGGSADDEVVEIVDVLPLPNRPVLVVKVRGPDGQTKVYDPATGKWLTPEEAKAALSSAGGSAGGSAG [r3_206_TrMRF]	1.09 ± 0.032 kcal/mol	1.98 ± 0.045 kcal/mol	1.61 ± 0.086 kcal/mol
SAGGSAGGSADGNKPPEIKINLEVERHPNGMVEITATLHWPGGKEFPVRIMYNPDKIFIEISAGGSAGGSAG [r3_259_TrROS]	2.95 ± 0.31 kcal/mol	3.4 ± 0.16 kcal/mol	3.19 ± 0.14 kcal/mol
SAGGSAGGSADGWVFLVGADVEVEPVPASLLNVPRSVPGEENPYVVKLKEVSFLLVPAKELSAGGSAGGSAG [r3_488_TrMRF]	-0.906 ± 0.39 kcal/mol	0.734 ± 0.23 kcal/mol	0.185 ± 0.16 kcal/mol
SAGGSAGGSADIGDPSKIKPKPLHFSFPVKIKLSFEYNGPDGVKKTFSLELTFTVVDKGLGSAGGSAGGSAG [r3_380_TrMRF]	3.15 ± 0.2 kcal/mol	4.14 ± 0.21 kcal/mol	3.89 ± 0.44 kcal/mol
SAGGSAGGSADLLEELPGLEVVDIERKGNSVVALFRNKETGELVRVTVDADGNITVEVLPLESAGGSAGGSA [r18_26_TrROS_Hall]	3.7 ± 0.1 kcal/mol	4.02 ± 0.072 kcal/mol	3.99 ± 0.11 kcal/mol
SAGGSAGGSADWQKLEYPFPPGMPLDNIKEELRDLFPGKKPTIEIDKIEPHNGQYWIKITVKSAGGSAGGSA [r18_360_TrROS]	0.42 ± 0.047 kcal/mol	0.0785 ± 0.15 kcal/mol	0.291 ± 0.075 kcal/mol
SAGGSAGGSAEELLKKLAEELGLEEGDEVTIEVDGKLIKIYFNKDGKIVKVEVYELDPEDLSAGGSAGGSAG [r3_468_TrROS_Hall]	2.01 ± 0.11 kcal/mol	3.59 ± 0.087 kcal/mol	3.25 ± 0.079 kcal/mol
SAGGSAGGSAEEVTVTVKIERTTEDGEKVEETITVTVPAEKLDELKKAAEEAGFTVVEVTPSAGGSAGGSAG [r3_453_TrROS_Hall]	2.68 ± 0.14 kcal/mol	2.19 ± 0.14 kcal/mol	2.38 ± 0.1 kcal/mol
